Among the data in publication PMC8945853, “Androgen Glucuronidation in Mice: When, Where, and How” (Biology, 2022) are Km and Vmax values, retold here.

Assay in all cases: cells, lysate or membranes
Substrate in series [1]: C[C@]12CCC(=O)C[C@@H]1CC[C@@H]1[C@@H]2CC[C@]2(C)[C@@H](O)CC[C@@H]12
The note with it: UDP-glucuronic acid co-substrate, 37 °C, DHT-glucuronide formation.

Substrate in series [2]: C[C@]12CC[C@@H](O)C[C@@H]1CC[C@@H]1[C@@H]2CC[C@]2(C)[C@@H](O)CC[C@@H]12
To be noted: UDP-glucuronic acid co-substrate, 37 °C, 17-glucuronide (3α-Diol-17G) formation.

Substrate in series [3]: C[C@]12CC[C@H]3[C@@H](CCC4=CC(=O)CC[C@@]43C)[C@@H]1CC[C@@H]2O
The note with it: UDP-glucuronic acid co-substrate, 37 °C, testosterone-glucuronide formation.

[4] abbreviates: table value, text b37 prints 22.5 ± 5.1.
[5] abbreviates: table value, text b37 prints 17.8 ± 2.0.

B1: Ugt2b5 (Mus musculus) (protein)
chain: GKVLVWPMEFSHWMNIKIILDELVQRGHEVTVLRPSAYYVLDPKKSPGLKFETFPTSVSKDNLENFFIKFVDVWTYEMPRDTCLSYSPLLQNMIDEFSDYFLSLCKDVVSNKELMTKLQESKFDVLLSDPVASCGELIAELLQIPFLYSIRFSPGYQIEKSSGRFLLPPSYVPVILSGLGGQMTFIERIKNMICMLYFDFWFQMFNDKKWDSFYSEYLGRPTTLVETMGQAEMWLIRSNWDLEFPHPTLPNVDYVGGLHCKPAKPLPKDMEEFVQSSGDHGVVVFSLGSMVSNMTEEKANAIAWALAQIPQKVLWKFDGKTPATLGHNTRVYKWLPQNDLLGHPKTKAFVTHGGANGVYEAIYHGIPMIGIPLFGEQHDNIAHMVAKGAAVALNIRTMSKSDVLNALEEVIENPFYKKNAIWLSTIHHDQPMKPLDRAVFWIEFVMRHKRAKHLRPLGHNLTWYQYHSLDVIGFLLSCVATTIVLSVKCLLFIYRFFVKKENKMKNE
With B1, the Km was 35.6 ± 11.5 µM in series [1], 22.7 ± 5.1 µM in series [2] (setting [4]) and 65.5 ± 8.6 µM in series [3]. For the same protein, the Vmax in series [1] was determined as 5.05e-05 µmol/min/mg; in series [2] (setting [4]) it was 0.000115 µmol/min/mg; in series [3], 0.000186 µmol/min/mg.

B2: Ugt2b34 (Mus musculus) (protein)
chain: GKVLVWPMEFSHWLNLKTILDELLKKGHEVMVLRPSASLSYEVDNTSAIEFETYPTSYSLSELEEIFWESLKKYIYELPKQSFWGYFLMLQEMVWVDSKYFESLCKDVVFNKELMTKLQKSRFDVILADPFIPCGDLLAEVLKIPLVYSLRFFPGSTYEKYSGGLPLPPSYVPVVMSELSDRMTFMERVRNVIYMLCFDFWFQTFNEKNWNQLYTEVLGRPTTLSETMAKADIWLIRTYWDLEFPHPVLPNFDFIGGLHCRPAKPLPKEIEDFVQSSGEHGVVVFSLGSMVGSITEERANVIAAGLAQIPQKVLWRFEGKKPETLGSNTRLYKWIPQNDLLGHSKTRAFITHGGTNGIYEAIYHGIPVVGIPLFGDQYDNIVHLKAKGAAVRLDFLTMSSTDLHTALKTVTNDPSYKENAMRLSRIHHDQPVKPLDRAVFWIEFVMRHKGAKHLRVAAHDLSWVQYHSLDVLGFLLACVLTVMFILKKCCLFCCQKLTKAGRKKKGE
In the case of B2, the Km in series [1] came out at 54.9 ± 2.9 µM; in series [2] it was 16.3 ± 4.8 µM. Moreover, the values for the Vmax in series [1] and in series [2] were 4.31e-05 µmol/min/mg and 8.5e-06 µmol/min/mg, respectively.

B3: Ugt2b1 (Mus musculus) (protein)
chain: KVLVWPTEYSHWINMKIILDELVQRGHDVTVLISSASILIGPSNESSINFEIYSAPLSKDDLEYAFEKWVGNWTYELKKLPFWTSYSKLQKISSEYSDMIESFCKAVVWNKSLMKKLQGSKFDVVLADALVPCGELLSELLKTPLVYSLRFCPGYKCEKYSGGLPLPPSYVPVVLSELSDHMTFAERVKNMLQVLLFDFWFQTFNEKSWNQFYSDVLGRPTTLTEMMGKADIWLVRTFWDLKFPHPFLPNFDFVGGLHCKPAKPLPKEMEEFVQSSGEHGVVVFSLGSMVKNIKEEKANVVASALAQIPQKVLWRFDGKKPDTLGSNTRLYKWIPQNDLLGHPKTKAFIAHGGTNGIYEAIYHGIPIVGIPLFGDQPDNINHIVAKGAAVRVDFDTMSTTDLLTALKTVINDPSYKENAMRLSRIHHDQPMKPLDRAVFWIEYVMRNKGAKHLRPALHDLTWFQYHSLDVIGFLLVCVVAVVFIIAKCCLFCCHKTANMGKKKKE
B3: the Km is recorded as 17.8 ± 0.7 µM in series [1], 11.7 ± 2.0 µM in series [2] (setting [5]) and 20.3 ± 0.7 µM in series [3]. The Vmax in series [1] came out at 0.000238 µmol/min/mg; in series [2] (setting [5]) it was 3.48e-05 µmol/min/mg; in series [3], 5.12e-05 µmol/min/mg.

Usually Km stands for the substrate concentration at which the rate is half of its maximum. A word on the Vmax: it is the top rate of the reaction or transport when substrate is in excess.
